In the supplement of paper PMC10126150:
± gives the standard deviation of the averaged measurements.

Tested on: ATP
Test: switch fluorescence ratio, 500 uM ATP over buffer (Cy3 cluster intensity, sum of 5 cycles each) (fold (ratio)); higher = stronger signal-on switching upon ATP binding; sequences stand for … in TCGTCGGCAGCGTCAGATGTGTATAAGAGACAGTTTTTTTTTTTTTTTTTTTTTTTTT…TC
Conditions: aptamer strand: ATP DNA aptamer (quencher-CACCTGGGGGAGTATTGCGGAGGAAGG + anchor), 100 nM annealed; ATP concentration: 500 uM
Method in brief: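 Switching-strand clusters labelled with Cy3 on a modified Illumina MiSeq flow-cell were annealed to 100 nM quencher-labelled ATP aptamer, imaged in selection buffer, and re-imaged after 15 min with 500 uM ATP at 22 °C. This was done over five cycles with NaOH stripping and re-annealing in between. The fluorescence ratio is summed target-cycle over summed buffer-cycle Cy3 intensity per cluster, averaged per switch-domain sequence, excluding clusters outside 100-1000 RFU.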
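Also: ATP exposure 15 min at 22 °C before imaging.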

Sequence | switch fluorescence ratio
ACTAAGGGCG | 1.09 ± 0.019
ACTAAGGGGA | 1.03 ± 0.0058
ACTAATAAGA | 1.01 ± 0.019
ACTAATAAGG | 1.04 ± 0.029
ACTAATGCGC | 1.05 ± 0.019
ACTAGAACAT | 1.052 ± 0.0042
ACTAGGAAAA | 0.997 ± 0.011
ACTAGGGACA | 1.24 ± 0.028
ACTAGGGGAC | 1.06 ± 0.085
ACTAGGGGTT | 1.23 ± 0.34
ACTAGGTGCG | 1.06 ± 0.045
ACTAGTTTTC | 0.9611 ± 0.0091
ACTATAAGAA | 1.03 ± 0.014
ACTATAGGAC | 1.07 ± 0.017
ACTATATTTT | 1.04 ± 0.0067
ACTATCGGCA | 1.02 ± 0.029
ACTATCTTTG | 0.9924 ± 0.0098
ACTATGACGT | 1.04 ± 0.017
ACTATGAGTT | 0.9975 ± 0.0073
ACTATTCGT | 0.99 ± 0.026
ACTATTTGTT | 1.04 ± 0.027
ACTCAATCTG | 1.0397 ± 0.00024
ACTCAGGAGT | 1.011 ± 0.0031
ACTCCAGGAG | 1.06 ± 0.025
ACTCGAGGTT | 1.05 ± 0.013

Sequence | switch fluorescence ratio
ACTCGGGGAG | 1 ± 0.013
ACTCGGTTGG | 1.03 ± 0.037
ACTCGTAACT | 0.9931 ± 0.0057
ACTCGTTAAA | 0.978 ± 0.014
ACTCGTTGTT | 1.02 ± 0.024
ACTCTACCGT | 1.29 ± 0.057
ACTCTAGTTT | 1.048 ± 0.0027
ACTCTTATAA | 1.048 ± 0.0059
ACTGAAGCAT | 1.17 ± 0.021
ACTGACTCA | 1.23 ± 0.048
ACTGAGGATG | 1.06 ± 0.0063
ACTGAGTTTA | 1.02 ± 0.019
ACTGATGACG | 1.06 ± 0.078
ACTGATGGAC | 1.06 ± 0.027
ACTGATGGGT | 1 ± 0.013
ACTGATTTAT | 1.01 ± 0.028
ACTGCAAAAT | 1.127 ± 0.0017
ACTGCTACGA | 1.36 ± 0.018
ACTGGACACA | 1.22 ± 0.069
ACTGGAGGAT | 1.05 ± 0.013
ACTGGCAGTT | 1.01 ± 0.037
ACTGGCTGTT | 1.03 ± 0.035
ACTGGGATGG | 1.031 ± 0.0089
ACTGGTATTG | 1.02 ± 0.025
ACTGGTTAGT | 1 ± 0.045

Sequence | switch fluorescence ratio
ACTGGTTTAG | 0.9975 ± 0.0095
ACTGGTTTGG | 1.04 ± 0.063
ACTGGTTTTT | 0.987 ± 0.036
ACTGTACCCT | 1.22 ± 0.016
ACTGTCATTA | 1.08 ± 0.019
ACTGTCGTCT | 1.0405 ± 0.00033
ACTGTGTACC | 1.04 ± 0.015
ACTGTGTGGC | 0.992 ± 0.012
ACTGTTAGCA | 1.061 ± 0.0046
ACTGTTCCGA | 1.05 ± 0.054
ACTGTTTCTC | 0.996 ± 0.022
ACTGTTTTAT | 1.01 ± 0.038
ACTTAAAATG | 1.06 ± 0.082
ACTTAGAATA | 1.032 ± 0.0033
ACTTAGTCTA | 1.023 ± 0.0066
ACTTATAGGA | 1.03 ± 0.012
ACTTATGGGA | 1.02 ± 0.019
ACTTCAGATT | 0.995 ± 0.012
ACTTCGAATA | 1.36 ± 0.07
ACTTCTAGGC | 1.02 ± 0.058
ACTTCTGGCT | 0.9717 ± 0.0054
ACTTGATACG | 1.08 ± 0.063
ACTTGCGCAG | 1.05 ± 0.043
ACTTGGACTG | 1.03 ± 0.042
ACTTGGCAAT | 4.347 ± 0.014

Sequence | switch fluorescence ratio
ACTTGGGGGG | 0.994 ± 0.012
ACTTGGTAT | 1 ± 0.07
ACTTGTAGTA | 1.01 ± 0.012
ACTTGTGGTC | 0.9952 ± 0.0084
ACTTGTTCGT | 1.006 ± 0.0075
ACTTTAGTTC | 1.01 ± 0.036
ACTTTATCTA | 1.03 ± 0.061
ACTTTATGCT | 1.01 ± 0.024
ACTTTCTCAG | 1.077 ± 0.0049
ACTTTGAA | 1.01 ± 0.037
ACTTTGAGTG | 0.976 ± 0.015
ACTTTGGGCA | 0.99606 ± 0.00098
ACTTTGGGGG | 1.01 ± 0.042
ACTTTGGTCT | 1.04 ± 0.051
ACTTTGTCGG | 0.995 ± 0.038
ACTTTTAAGG | 0.983 ± 0.024
ACTTTTAGGT | 1.0193 ± 0.00024
ACTTTTCGGC | 0.9915 ± 0.0073
ACTTTTCGGG | 0.9921 ± 0.0056
ACTTTTGAAA | 0.994 ± 0.014
ACTTTTGGGG | 1.005 ± 0.0023
ACTTTTGGGT | 0.9602 ± 0.0088
ACTTTTTAGT | 0.986 ± 0.05
ACTTTTTATA | 0.968 ± 0.082
ACTTTTTGGG | 1.01 ± 0.065

Sequence | switch fluorescence ratio
ACTTTTTTAG | 0.992 ± 0.019
ACTTTTTTAT | 1.01 ± 0.018
AGAAAAAAAG | 1.02 ± 0.03
AGAAAAAAGC | 0.989 ± 0.015
AGAAAAGGTG | 1.19 ± 0.13
AGAAAAGTAC | 1.08 ± 0.076
AGAAAAGTGG | 0.985 ± 0.019
AGAAAAGTGT | 1.0276 ± 0.00047
AGAAACCGTA | 1.1 ± 0.031
AGAAACCGTT | 1.03 ± 0.021
AGAAACGGGG | 1.08 ± 0.15
AGAAAGGTTG | 0.984 ± 0.019
AGAAATGAAT | 1.04 ± 0.024
AGAAATTATA | 1.001 ± 0.0073
AGAAATTGGT | 1.02 ± 0.029
AGAAATTGTT | 0.999 ± 0.047
AGAACTGGTT | 0.961 ± 0.034
AGAAGAAGGG | 1.03 ± 0.017
AGAAGAATTT | 1.02 ± 0.016
AGAAGATCAG | 1.02 ± 0.015
AGAAGATCTA | 0.9942 ± 0.0081
AGAAGCCCAC | 1.09 ± 0.019
AGAAGCGTGG | 1.01 ± 0.025
AGAAGGCAAC | 1.015 ± 0.0017
AGAAGGCTAG | 1.02 ± 0.05

Sequence | switch fluorescence ratio
AGAAGGGCA | 0.983 ± 0.042
AGAAGGTGCC | 1.05 ± 0.049
AGAAGTACTA | 1.22 ± 0.036
AGAAGTGGCG | 1.01 ± 0.03
AGAAGTTTTG | 1.04 ± 0.054
AGAATATTAA | 0.978 ± 0.013
AGAATATTTT | 0.963 ± 0.011
AGAATGGGAA | 1 ± 0.019
AGAATGGGGA | 1.02 ± 0.0092
AGAATGTTTT | 0.989 ± 0.033
AGAATTAACT | 0.998 ± 0.025
AGAATTATAT | 0.973 ± 0.023
AGAATTGGGT | 0.9964 ± 0.0014
AGACACGAAT | 0.9811 ± 0.0068
AGACAGGGGT | 1.07 ± 0.098
AGACAGGTAA | 1.01 ± 0.02
AGACATATTT | 1 ± 0.027
AGACATCTTT | 1.016 ± 0.0062
AGACATGTTT | 0.981 ± 0.014
AGACGAAAGA | 1.02 ± 0.027
AGACGATTGT | 0.985 ± 0.018
AGACGCAGGG | 1.034 ± 0.0053
AGACGCAGTG | 0.9834 ± 0.0038
AGACGCGGTG | 1.044 ± 0.0038
AGACGGGATT | 1.03 ± 0.021

Sequence | switch fluorescence ratio
AGACGGGCAC | 1.074 ± 0.0063
AGACGGGGCC | 1.01 ± 0.018
AGACGGGGTC | 0.9848 ± 0.0021
AGACGGGTGC | 1.08 ± 0.074
AGACGGTATG | 1.02 ± 0.0061
AGACGGTTTG | 1.01 ± 0.017
AGACGTTTTT | 1 ± 0.033
AGACTACTAC | 1.12 ± 0.025
AGACTAGCCA | 0.981 ± 0.081
AGACTCTCG | 1.02 ± 0.098
AGACTCTGGT | 0.969 ± 0.015
AGACTGCCTG | 0.971 ± 0.077
AGACTGGGGC | 1.03 ± 0.03
AGACTTATTT | 1.01 ± 0.013
AGAGAACTTG | 0.983 ± 0.1
AGAGAAGAGA | 0.998 ± 0.023
AGAGAATACG | 1 ± 0.031
AGAGACAGCT | 0.994 ± 0.05
AGAGACGGCA | 1.01 ± 0.032
AGAGAGATGG | 0.977 ± 0.018
AGAGAGCAAG | 1.07 ± 0.043
AGAGATAGGG | 1.01 ± 0.019
AGAGATGAGA | 1.02 ± 0.031
AGAGATGAGG | 0.974 ± 0.042
AGAGCATGAT | 1.03 ± 0.024

Sequence | switch fluorescence ratio
AGAGCGGGCT | 1.04 ± 0.036
AGAGCGTGGT | 0.999 ± 0.023
AGAGGAGTCT | 0.9706 ± 0.0019
AGAGGAGTGT | 0.943 ± 0.0098
AGAGGCGAGG | 0.9913 ± 0.0013
AGAGGCTCAG | 1.08 ± 0.069
AGAGGCTTTT | 1.02 ± 0.046
AGAGGGATGG | 0.9919 ± 0.0076
AGAGGGGAAG | 1.005 ± 0.0087
AGAGGGGTCT | 1.02 ± 0.043
AGAGGGTTGG | 0.986 ± 0.022
AGAGGGTTGT | 0.992 ± 0.031
AGAGGGTTTG | 0.998 ± 0.025
AGAGGTATCT | 0.9872 ± 0.0046
AGAGGTCTGT | 0.986 ± 0.0056
AGAGGTCTTG | 0.979 ± 0.029
AGAGGTGACA | 0.999 ± 0.061
AGAGGTTGCA | 0.994 ± 0.032
AGAGGTTGCG | 0.955 ± 0.073
AGAGTACGGC | 1.09 ± 0.017
AGAGTAGGGT | 1 ± 0.0043
AGAGTATTAG | 1 ± 0.013
AGAGTCAACT | 1 ± 0.042
AGAGTCATGT | 1.01 ± 0.029
AGAGTCATTA | 0.995 ± 0.012
